“And” between values parts separate entries of the source, which are not always exact repeats. Equal values may be shown once. Read-outs that look alike come from different tables or passages of the source.
How the values were obtained:
Assay in all cases: cell-based or functional assay
[1] = target: HIV-1 Env of ZM106.9.SG3 pseudovirus (clade C) (HIV-1)
[2] = target: HIV-1 Env of CNE31.SG3 pseudovirus (clade C) (HIV-1)
[3] = target: HIV-1 Env of PVO.04.SG3 pseudovirus (clade B) (HIV-1)
[4] = target: HIV-1 Env of KER2008.12.SG3 pseudovirus (clade A) (HIV-1)
[5] = target: HIV-1 Env of TH966.8.SG3 pseudovirus (clade AE) (HIV-1)
[6] = target: HIV-1 Env of 6095.V1.C10.SG3 pseudovirus (clade ACD) (HIV-1)
[7] = target: HIV-1 Env of ZM106.9.SG3 pseudovirus (clade C) (HIV-1); remark: listed apart in the source
[8] = target: HIV-1 Env of ZM215.8.SG3 pseudovirus (clade C) (HIV-1)
[9] = target: HIV-1 Env of CNE31.SG3 pseudovirus (clade C) (HIV-1); remark: listed apart in the source
[10] = target: HIV-1 Env of 6101.10.SG3 pseudovirus (clade B) (HIV-1)
[11] = target: HIV-1 Env of YU2.DG.SG3 pseudovirus (clade B) (HIV-1) (UniProt P35961)
[12] = target: HIV-1 Env of PVO.04.SG3 pseudovirus (clade B) (HIV-1); remark: listed apart in the source
[13] = target: HIV-1 Env of KER2008.12.SG3 pseudovirus (clade A) (HIV-1); remark: listed apart in the source
[14] = target: HIV-1 Env of TH966.8.SG3 pseudovirus (clade AE) (HIV-1); remark: listed apart in the source
[15] = target: HIV-1 Env of 6095.V1.C10.SG3 pseudovirus (clade ACD) (HIV-1); remark: listed apart in the source
[16] = target: HIV-1 Env of ZM215.8.SG3 pseudovirus (clade C) (HIV-1); remark: listed apart in the source
[17] = target: HIV-1 Env of 6101.10.SG3 pseudovirus (clade B) (HIV-1); remark: listed apart in the source
[18] = target: HIV-1 Env of YU2.DG.SG3 pseudovirus (clade B) (HIV-1) (UniProt P35961); remark: listed apart in the source

Chain of 10E8v4 S100cW (antibody) (VH): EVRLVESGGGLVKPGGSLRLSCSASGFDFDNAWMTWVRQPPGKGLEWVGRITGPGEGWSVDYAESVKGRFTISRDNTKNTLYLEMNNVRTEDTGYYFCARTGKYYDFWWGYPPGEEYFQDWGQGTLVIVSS
Chain of 10E8v4 S100cW (antibody) (VL): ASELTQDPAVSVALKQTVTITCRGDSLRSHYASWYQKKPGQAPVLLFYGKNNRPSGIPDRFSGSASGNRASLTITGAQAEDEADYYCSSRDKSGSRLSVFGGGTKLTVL
Chain of 10E8v4 S100cF (antibody) (VH): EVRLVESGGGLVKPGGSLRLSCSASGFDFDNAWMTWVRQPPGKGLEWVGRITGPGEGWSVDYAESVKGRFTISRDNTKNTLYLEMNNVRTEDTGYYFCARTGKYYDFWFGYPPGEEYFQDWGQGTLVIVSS
Chain of 10E8v4 S100cF (antibody) (VL): as the sequence (VL) above
Chain of 10E8v4 S100cH (antibody) (VH): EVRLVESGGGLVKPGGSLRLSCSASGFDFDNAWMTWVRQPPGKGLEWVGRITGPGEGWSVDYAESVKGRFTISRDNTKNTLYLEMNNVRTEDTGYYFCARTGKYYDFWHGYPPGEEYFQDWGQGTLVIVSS
Chain of 10E8v4 S100cH (antibody) (VL): as the sequence (VL) above

| Substance | IC50, pseudovirus neutralization [1] [µg/mL] | IC50, pseudovirus neutralization [2] | IC50, pseudovirus neutralization [3] | IC50, pseudovirus neutralization [4] [µg/mL] | IC50, pseudovirus neutralization [5] | IC50, pseudovirus neutralization [6] [µg/mL] | IC50, pseudovirus neutralization [8] [µg/mL] | IC80, pseudovirus neutralization [8] [µg/mL] | IC50, pseudovirus neutralization [9] [µg/mL] | IC80, pseudovirus neutralization [9] [µg/mL] | IC50, pseudovirus neutralization [10] [µg/mL] | IC80, pseudovirus neutralization [10] [µg/mL] | IC50, pseudovirus neutralization [11] [µg/mL] | IC80, pseudovirus neutralization [11] [µg/mL] | IC50, pseudovirus neutralization [12] [µg/mL] | IC80, pseudovirus neutralization [12] [µg/mL] | IC50, pseudovirus neutralization [16] [µg/mL] | IC50, pseudovirus neutralization [17] [µg/mL] | IC50, pseudovirus neutralization [18] [µg/mL] | IC50, pseudovirus neutralization [15] [µg/mL] | also measured |
| --- | --- | --- | --- | --- | --- | --- | --- | --- | --- | --- | --- | --- | --- | --- | --- | --- | --- | --- | --- | --- | --- |
| 10E8 antibody | > 50 | 1.19 µg/mL and 0.995 µg/mL | 2.09 µg/mL and 0.997 µg/mL | > 50 | 0.032 µg/mL and 0.023 µg/mL | – | – | – | – | – | – | – | – | – | – | – | – | – | – | – | – |
| 10E8v4 S100cF (antibody) | – | – | – | – | – | 0.001 | 0.003 | 0.02 | 0.097 | 0.306 | 0.001 | 0.008 | 0.073 | 0.482 | 0.147 | 0.696 | – | – | – | – | IC80, pseudovirus neutralization [6]: 0.001 µg/mL; IC50, pseudovirus neutralization [7]: > 50 µg/mL; IC80, pseudovirus neutralization [7]: > 50 µg/mL; IC50, pseudovirus neutralization [13]: > 50 µg/mL; IC80, pseudovirus neutralization [13]: > 50 µg/mL; IC50, pseudovirus neutralization [14]: 0.002 µg/mL; IC80, pseudovirus neutralization [14]: 0.017 µg/mL |
| 10E8v4 S100cH (antibody) | – | – | – | – | – | 0.011 | 0.141 | 0.966 | 2.24 | 6.79 | 0.103 | 0.643 | 2.59 | 10.9 | 3.4 | 14 | – | – | – | – | IC80, pseudovirus neutralization [6]: 0.046 µg/mL; IC50, pseudovirus neutralization [7]: > 50 µg/mL; IC80, pseudovirus neutralization [7]: > 50 µg/mL; IC50, pseudovirus neutralization [13]: > 50 µg/mL; IC80, pseudovirus neutralization [13]: > 50 µg/mL; IC50, pseudovirus neutralization [14]: 0.091 µg/mL; IC80, pseudovirus neutralization [14]: 0.488 µg/mL |
| 10E8v4 S100cW (antibody) | > 50 | 0.107 µg/mL | 0.085 µg/mL | > 50 | 0.003 µg/mL | 0.001 | 0.001 | 0.012 | 0.041 | 0.149 | 0.001 | 0.006 | 0.042 | 0.331 | 0.088 | 0.388 | 0.004 | 0.002 | 0.031 | – | IC80, pseudovirus neutralization [15]: 0.001 µg/mL; IC80, pseudovirus neutralization [1]: > 50 µg/mL; IC80, pseudovirus neutralization [16]: 0.025 µg/mL; IC80, pseudovirus neutralization [2]: 0.295 µg/mL; IC80, pseudovirus neutralization [17]: 0.01 µg/mL; IC80, pseudovirus neutralization [18]: 0.26 µg/mL; IC80, pseudovirus neutralization [3]: 0.459 µg/mL; IC80, pseudovirus neutralization [4]: > 50 µg/mL; IC80, pseudovirus neutralization [5]: 0.013 µg/mL; IC50, pseudovirus neutralization [14]: 0.001 µg/mL; IC80, pseudovirus neutralization [14]: 0.007 µg/mL |
| 10E8v4 VL Y32A (antibody) | > 50 | > 50 µg/mL | > 50 µg/mL | > 50 | 3.53 µg/mL | – | – | – | – | – | – | – | – | – | – | – | 11.7 | > 50 | > 50 | 0.409 | – |
| 10E8v4 VL Y32D (antibody) | > 50 | > 50 µg/mL | > 50 µg/mL | > 50 | > 50 µg/mL | – | – | – | – | – | – | – | – | – | – | – | > 50 | > 50 | > 50 | 1.55 | – |
| 10E8v4 VL Y32E (antibody) | > 50 | > 50 µg/mL | > 50 µg/mL | > 50 | 19 µg/mL | – | – | – | – | – | – | – | – | – | – | – | > 50 | > 50 | > 50 | 0.215 | – |
| 10E8v4 VL Y32F (antibody) | > 50 | 3.2 µg/mL | 2.25 µg/mL | > 50 | 0.031 µg/mL | – | – | – | – | – | – | – | – | – | – | – | 0.102 | 0.08 | 2 | 0.017 | – |
| 10E8v4 VL Y32H (antibody) | > 50 | 29.9 µg/mL | > 50 µg/mL | > 50 | 0.788 µg/mL | – | – | – | – | – | – | – | – | – | – | – | 1.39 | 7.4 | 8.76 | 0.032 | – |
| 10E8v4 VL Y32I (antibody) | > 50 | > 50 µg/mL | > 50 µg/mL | > 50 | 21.4 µg/mL | – | – | – | – | – | – | – | – | – | – | – | > 50 | > 50 | > 50 | 1.3 | – |
